Earlier results, collected in patent publication US20060105948A1, “GLP-2 derivatives” (Novo Nordisk A/S, priority 2003, published 2006).

Columns and labels:
[1] = test system: (DS)-induced colitis in mice; conditions: 350 ng or 750 ng s.c. twice daily for 9-10 days
[2] = humans
[3] = in vivo
[4] = s.c. injection 400 mg = 106.000 pmol

Row | Substance | histology of colon ([1]; DS mice) | body weight loss ([1]; mice on 5% DS in drinking water) | T½ value of elimination ([2]; GLP-2 infusion 0.8 pmol/kg * min) [min] | plasma level of intact GLP-2(1-33) reached on infusion ([2]; GLP-2 infusion 0.8 pmol/kg * min, increasing from 9 pM) [pM] | injected GLP-2(1-33) still intact ([2]; one hour after the s.c. injection) [%] | maximum plasma concentration [2, 4] [pM] | time of maximum plasma concentration [2, 4] [min] | biological half-life [3]
1 | A2G-GLP-2(1-33) (HGDGSFSDEMNTILDNLAARDFINWLIQTKITD; Glucagon-like peptide 2; UniProt P01275 146-178, looked up, variant A2G) [GLP-2 peptide analog with Ala2 replaced by Gly] | greater proportion of intact mucosal epithelium, increased colon length, crypt depth and mucosal area | lost significantly less body weight |  |  |  |  |  | 
2 | GLP-2(1-33) |  |  | 7 | 131 | 69 | 1500 | 45 | about 7 min
